Among the data in publication PMC8067709, “Crystal Structure of the Epo1-Bem3 Complex for Bud Growth” (International Journal of Molecular Sciences, 2021) are molar mass values, retold here.

B1: Bem3^CC1 (1-99) with 6xHis tag, isolated protein [Saccharomyces cerevisiae] / itself (parent)
chain: MTDNLTTTHGGSTTLELLAQYNDHRSKKDKSIEHIEKGTCSGKERNPSYDEIFTENIKLKLQVQEYETEIESLEKVIDMLQKNREASLEVVLEQVQNDS

The variants in this assay derive from B1. Nature of the assay: SEC-MALS (MALS coupled with gel filtration). As to conditions: read off a plot.
For the variant chain 1 N56A E67A, the molar mass worked out at 18 kDa.

On to chain 1 N56A Y66A, for which the molar mass amounted to 10 kDa.

For the variant chain 1 N56A Y66A E67A, the molar mass was determined as 9.5 kDa.

Regarding chain 1 E67A, the molar mass turned out to be 20 kDa.

Consider chain 1 N56A, for which the molar mass turned out to be 17 kDa.

Turning to chain 1 Y66A, the molar mass is 19 kDa.
